Data: US20130022608A1 (POMONA RICERCA S R L, published 2013)

B1: Fab PN-SIA28 (Fab, V domains shown)
VH: LEESGGGVVQPGRSLRLSCAASGFPFSSYGMHWVRQAPGKGLEWVAGVSYDGSYKYYADSVKGRFTISRDSSKSTLYLQMNSLRPEDTAVYYCARPSAIFGIYIILNGLDVWGQGTTVTVSS
VL: ELTQSPSSVSASVGDRVTITCRATQGISSWLAWYQQKPGKPPKLLIFGASSLQSGVPSRFSGSGSGTDFTLTISSLQPEDFATYFCQQAHSFPLTFGGGTKVEIK
B2: IgG PN-SIA28 (antibody, V domains shown)
VH: LEESGGGVVQPGRSLRLSCAASGFPFSSYGMHWVRQAPGKGLEWVAGVSYDGSYKYYADSVKGRFTISRDSSKSTLYLQMNSLRPEDTAVYYCARPSAIFGIYIILNGLDVWGQGTTVTVSS
VL: ELTQSPSSVSASVGDRVTITCRATQGISSWLAWYQQKPGKPPKLLIFGASSLQSGVPSRFSGSGSGTDFTLTISSLQPEDFATYFCQQAHSFPLTFGGGTKVEIK

Legend:
Experiment in all cases: cell-based or functional assay
[1] = target: Hemagglutinin of A/Wisconsin/67/2005 (H3N2) (Influenza A virus A/Wisconsin/67/2005 …)
[2] = target: Hemagglutinin of A/Victoria/3/75 (H3N2) (Influenza A virus A/Victoria/3/75 (H3N2), UniProt P03435 17-567)
[3] = target: Hemagglutinin of A/Mal/302/54 (H1N1) (Influenza A virus A/Mal/302/54 (H1N1))
[4] = target: Hemagglutinin of A/Milan/UHSR1/2009 (H1N1) (Influenza A virus A/Milan/UHSR1/2009 …)
[5] = target: Hemagglutinin of A/Swine/Parma/1/97 (H1N1) (Influenza A virus A/Swine/Parma/1/97 …)
[6] = target: Hemagglutinin of A/NC/20/99 (H1N1) (Influenza A virus A/NC/20/99 (H1N1))
[7] = target: Hemagglutinin of A/WS/33 (H1N1) (Influenza A virus A/WS/33 (H1N1), UniProt P03454 18-565)
[8] = target: H3N2 HA (A/Aichi/2/68), wild type (Influenza A virus A/Aichi/2/68 (H3N2), UniProt Q91MA7 17-566)
[9] = target: A/PR/8/34 (H1N1) hemagglutinin (HA), wild type (Influenza A virus A/PR/8/34 (H1N1), UniProt P03452 18-565)
[10] = target: Hemagglutinin of A/Port Chalmers/1/73 (H3N2) (Influenza A virus A/Port Chalmers/1/73 …)
[11] = target: Hemagglutinin of A/Hong Kong/8/68 (H3N2) (Influenza A virus A/Hong Kong/8/68 …)

| Binder | IC50, micro-neutralization assay on MDCK cells [1] [µg/mL] | IC50, micro-neutralization assay on MDCK cells [2] [µg/mL] | IC50, micro-neutralization assay on MDCK cells [3] [µg/mL] | IC50, micro-neutralization assay on MDCK cells [4] [µg/mL] | IC50, micro-neutralization assay on MDCK cells [5] [µg/mL] | IC50, micro-neutralization assay on MDCK cells [6] [µg/mL] | IC50, micro-neutralization assay on MDCK cells [7] [µg/mL] | IC50, micro-neutralization assay on MDCK cells [8] [µg/mL] | IC50, micro-neutralization assay on MDCK cells [9] [µg/mL] | IC50, micro-neutralization assay on MDCK cells [10] [µg/mL] | IC50, micro-neutralization assay on MDCK cells [11] [µg/mL] |
| --- | --- | --- | --- | --- | --- | --- | --- | --- | --- | --- | --- |
| B1 | > 20 | > 20 | 0.8 | 0.3 | 3.9 | 7 | 2.9 | 20 | 2 | 13.2 | 20 |
| B2 | – | 1.2 | 0.64 | 0.2 | 2 | – | 1.3 | 0.6 | 1.2 | 1.8 | 0.8 |
